Biological target: osteopontin (UniProt P10451)
Chain of UniProt P10451 (P10451 17-314): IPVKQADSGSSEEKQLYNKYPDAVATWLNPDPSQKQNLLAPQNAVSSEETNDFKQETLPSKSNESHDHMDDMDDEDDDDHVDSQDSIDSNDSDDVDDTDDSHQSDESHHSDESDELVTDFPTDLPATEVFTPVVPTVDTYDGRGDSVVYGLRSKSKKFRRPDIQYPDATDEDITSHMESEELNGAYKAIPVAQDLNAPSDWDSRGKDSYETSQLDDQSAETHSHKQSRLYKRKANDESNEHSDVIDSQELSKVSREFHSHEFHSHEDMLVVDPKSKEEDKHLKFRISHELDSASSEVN

PDGF-BB-stimulated fibroblast migration on osteopontin (monolayer wound closure, 24 h): inhibition by integrin αV blocking antibody in the panel of integrin blocking antibodies (Fig. 3B): 92%
PDGF-BB-stimulated fibroblast migration on osteopontin (monolayer wound closure, 24 h): reduction by integrin αV blocking antibody compared to control IgG (Fig. 3A): 91%
Substance: integrin alpha v (αV) (receptor)
